Target: T1, GST alone (UniProt P08515 1-218 = GST)
T1 construct: Negative control
Test: pull-down on GST beads, western blot with CS4E
Protocol: Fifteen µl of a 50% slurry of GST-S4BP bound to GST beads were incubated with 10 µg of soluble pMal-syndecan in 0.5 ml of lysis buffer that contained 1% BSA. After incubation for 30 minutes at room temperature with constant mixing, the reaction mixtures were placed on ice and washed 3× with lysis buffer followed by, 3 washes with lysis buffer containing 1 M NaCl. Protein bound to GST-S4BP beads was solubilized in SDS-PAGE buffer, electrophoresed, transferred to an Immobilon-P membrane and analyzed for bound syndecan-4 core protein using the avian specific syndecan-4 polyclonal antibody CS4E (Baciu et al. (1994) *J. Biol. Chem.* 269:696–703).

T1 sequence (P08515 whole entry): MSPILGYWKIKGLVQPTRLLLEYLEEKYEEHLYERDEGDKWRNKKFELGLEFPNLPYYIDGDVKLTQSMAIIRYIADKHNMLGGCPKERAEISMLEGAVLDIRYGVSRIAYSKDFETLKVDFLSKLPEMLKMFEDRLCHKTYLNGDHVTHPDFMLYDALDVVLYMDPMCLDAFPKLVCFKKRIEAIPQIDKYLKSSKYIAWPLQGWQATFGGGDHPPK

B1: pMal/syndecan-4 fusion protein, full length syndecan-4 core protein (S-4) (other, avian, UniProt P49416 20-197, looked up, not shown: large carriers)
chain: ESVRETETMDARWLDNVGSGDLPDDEDIGEFTPHLTSDEFDIDDTSGSGDYSDYDDAIYLTTVDTPAISDNYIPGDTERKMEGEKKNTMLDNEIIPDKASPVEANLSNKISMASTANSSIFERTEVLTALIAGGAVGLLFAVFLILLLVYRMKKKDEGSYDLGKKPIYKKAPTNEFYA
notes: Bacterially expressed, soluble, purified on a maltose column
  binding result: no binding (tested: 10 µg of soluble pMal-syndecan in 0.5 ml)

Source: patent publication US6566489 (GENERAL HOSPITAL, dated 2003)
